Where a chain is given by its changes, count along the chain named.
What was measured:
[1] = molecular target: T1, TROP2 on TROP2-positive NCI-H1975 cells (human, UniProt P09758 27-323); assay: binding to NCI-H1975 cells at pH 6.4, maximal MFI
T1 construct: Endogenous TROP2 of the human NCI-H1975 cell line; also called TACSTD2
T1 sequence: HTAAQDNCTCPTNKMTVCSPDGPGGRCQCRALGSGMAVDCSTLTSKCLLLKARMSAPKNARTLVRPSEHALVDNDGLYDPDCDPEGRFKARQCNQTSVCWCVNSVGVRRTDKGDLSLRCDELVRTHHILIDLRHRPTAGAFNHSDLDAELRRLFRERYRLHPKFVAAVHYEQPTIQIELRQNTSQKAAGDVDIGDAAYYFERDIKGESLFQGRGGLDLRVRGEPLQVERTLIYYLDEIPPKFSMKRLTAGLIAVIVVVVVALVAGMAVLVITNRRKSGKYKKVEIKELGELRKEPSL

[2] = molecular target: T2, Human TROP2 Protein, His Tag, Acro Biosystems (human, UniProt P09758 27-274); assay: Octet (BLI)
T2 construct: Bought protein; not shown: His tag
T2 sequence: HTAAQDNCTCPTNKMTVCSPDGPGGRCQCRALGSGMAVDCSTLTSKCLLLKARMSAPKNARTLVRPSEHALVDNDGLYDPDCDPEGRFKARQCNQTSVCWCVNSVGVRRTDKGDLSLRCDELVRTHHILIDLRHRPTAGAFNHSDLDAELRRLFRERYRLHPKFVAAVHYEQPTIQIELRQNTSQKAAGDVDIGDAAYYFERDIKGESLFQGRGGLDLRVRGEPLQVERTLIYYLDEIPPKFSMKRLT

[3] = molecular target: T1, TROP2 on TROP2-positive NCI-H1975 cells; assay: cell-based or functional assay
[4] = molecular target: T3, Human TROP2 Protein, His Tag (Acro Biosystems) (human, UniProt P09758 27-274); assay: BLI (Octet)
T3 construct: not shown: His tag
T3 sequence (looked up): T2 sequence

[5] = molecular target: T1, TROP2 on TROP2-positive NCI-H1975 cells; assay: cell-based or functional assay; remark: listed apart in the source
[6] = molecular target: T4, Human TROP2 Protein, His Tag (Acro Biosystems) (human, UniProt P09758 27-274); assay: BLI (Octet), IgG on anti-human Fc sensor, soluble TROP2; grade 2 = No change vs parent
T4 construct: Soluble analyte of the Octet assay; also called TACSTD2; not shown: His tag
T4 sequence (looked up): T2 sequence
Procedure: (§1) After allowing for four days of protein expression, cell culture supernatants were collected, quantified by SDS-PAGE analysis (DNS), and the pH dependence of the variant was evaluated using biolayer interferometry (BLI) on an Octet RED 96e instrument. Briefly, cell culture supernatants were diluted based on qualitative expression level of the variant determined by visual examination of SDS-PAGE gels, 5 μL of cell culture supernatant was diluted into 195 μL of 1×PBST, pH 7.4 for high expressors, 25 μL of cell culture supernatant was diluted into 175 μL of 1×PBST, pH 7.4 for medium expressors and 100 μL of cell culture supernatant was diluted into 100 μL of 1×PBST, pH 7.4 for low expressors for loading onto the sensor tips. The resulting diluted supernatants were then captured on an anti-human Fc sensor (Forte Bio). A baseline was established using 1×PBST (50 mM Potassium Phosphate Buffer+150 mM NaCl+0.05% Tween 20) pH 7.4, and the sensor was associated with 50 nM of TROP2 (Human TROP2 Protein, His Tag, Acro Biosystems) in 1×PBST pH 7.4 for 120 sec to generate an association curve. In the dissociation phase, the antibody-antigen complex on the sensor was exposed to 1×PBST pH 7.4 or pH 5.4, for 300 sec. Association and dissociation phase curves were examined for the starting ABPC antibody (with no substitutions) and each corresponding antibody variant at pH 5.4 and pH 7.4 to inform on two criteria: a) enhanced dissociation (i.e., higher koff values) at pH 5.4 due to histidine or alanine substitution compared to the starting ABPC, (with no substitutions), and b) reduced dissociation at pH 7.4 (i.e., lower koff values) compared to pH 5.4 in the antibody variant itself and with the starting ABPC (with no substitutions). […] It was also noted that while some mutations obliterated TROP2 binding, others were tolerated with little or n change in TROP2 binding kinetics.

[7] = molecular target: T5, Human TROP2 Protein, His Tag (human, UniProt P09758 27-274); assay: BLI (Octet) [1/2]
T5 construct: Bought protein; also called TACSTD2; not shown: His tag
T5 sequence (looked up): T2 sequence
Procedure: as §1

[8] = molecular target: T1, TROP2 on TROP2-positive NCI-H1975 cells; assay: cell-based or functional assay; remark: listed apart in the source
[9] = molecular target: T6, Human TROP2 Protein, His Tag (Acro Biosystems) (human, UniProt P09758 27-274); assay: BLI (Octet)
T6 construct: Bought protein; also called TACSTD2; not shown: His tag
T6 sequence: T2 sequence

[10] = molecular target: T7, Human TROP2 Protein, His Tag (Acro Biosystems) (human, UniProt P09758 27-274); assay: BLI (Octet); remark: listed apart in the source
T7 construct: not shown: His tag
T7 sequence (looked up): T2 sequence

B1: MYT11566 (WT sacituzumab variable regions) (antibody, human IgG1, V domains shown)
VH: QVQLQQSGSELKKPGASVKVSCKASGYTFTNYGMNWVKQAPGQGLKWMGWINTYTGEPTYTDDFKGRFAFSLDTSVSTAYLQISSLKADDTAVYFCARGGFGSSYWYFDVWGQGSLVTVSS
VL: DIQLTQSPSSLSASVGDRVSITCKASQDVSIAVAWYQQKPGKAPKLLIYSASYRYTGVPDRFSGSGSGTDFTLTISSLQPEDFAVYYCQQHYITPLTFGAGTKVEIK
notes: Human IgG1 heavy chain constant domain and Kappa light chain constant domain; also called Sacituzumab WT
For B1, the “Max MFI (@ pH 6.4)-H1975” value [1] was 29500 MFI and the Kd [2] was 0.6 nM.

B2: 112-DXd (antibody, IgG1, V domains shown)
VH: QVQLVQSGAEVKKPGASVKVSCKASGYTFTTAGMQWVRQAPGQGLEWMGWINTHSGVPKYAEDFKGRVTISADTSTSTAYLQLSSLKSEDTAVYYCARSGFGSSYWYFDVWGQGTLVTVSS
VL: B1 VL with L4M, S20T, I31T, D60S, A100Q, V104L
modifications: maleimide based GGFG-DXd conjugated to hinge cysteines, average DAR of about 4
For B2, the “% efficiency @ 100 nM ADC (cytotoxicity in NCI-H1975 cells)” value (from here on “% efficiency @ 100 nM ADC”) [3] was -1.22%.

B3: MYT12406 (antibody, V domains shown)
VH: B2 VH
VL: B1 VL with L4M, S20T, I31T, A51H, D60S, Q89H, Y92H, A100Q, V104L
notes: datopotamab VL 51, 89, 92 substituted
B3: no binding (tested: 50 nM) [4].

B4: MYT11635 (WT datopotamab variable regions) (antibody, human IgG1, V domains shown)
VH: B2 VH
VL: B1 VL with L4M, S20T, I31T, D60S, A100Q, V104L
notes: Human IgG1 heavy chain constant domain and Kappa light chain constant domain; also called Datopotamab WT
In the case of B4, the “Max MFI (@ pH 6.4)-H1975” value [1] is reported as 25900 MFI, the “Cytotox Fold over datopotamab (FOD)” value [5] is reported as 1 fold over datopotamab and the Kd [2] is reported as 1.25 nM.

B5: MYT13203 (antibody, V domains shown)
VH: B1 VH with D62H
VL: B1 VL with Q89H
notes: Sacituzumab HC-LC pairing variant; IgG
B5: binds [6].

B6: MYT11678 (antibody, V domains shown)
VH: B2 VH
VL: B1 VL with L4M, S20T, A25H, I31T, D60S, A100Q, V104L
notes: IgG from supernatant; His at LCV position 25; also called datopotamab variant L1 02
B6: binds [7].

B7: MYT11680 (antibody, V domains shown)
VH: B2 VH
VL: B1 VL with L4M, S20T, Q27H, I31T, D60S, A100Q, V104L
notes: IgG from supernatant; His at LCV position 27; also called datopotamab variant L1 04
B7: binds [7].

B8: MYT13199 (antibody, V domains shown)
VH: B1 VH with G66H
VL: B1 VL with Y53H
notes: as for B5
B8: binds [6].

B9: MYT11679 (antibody, V domains shown)
VH: B2 VH
VL: B1 VL with L4M, S20T, S26H, I31T, D60S, A100Q, V104L
notes: IgG from supernatant; His at LCV position 26; also called datopotamab variant L1 03
B9: binds [7].

B10: MYT13198 (antibody, V domains shown)
VH: B1 VH with K65H
VL: B1 VL with Y53H
notes: as for B5
B10: binds [6].

B11: MYT13187 (antibody, V domains shown)
VH: B1 VH with D62H
VL: B1 VL with S52H
notes: as for B5
B11: binds [6].

B12: MYT12407 (antibody, V domains shown)
VH: B2 VH
VL: B1 VL with L4M, S20T, I31T, S52H, D60S, Q89H, Y92H, A100Q, V104L
notes: datopotamab VL 52, 89, 92 substituted
B12: no binding (tested: 50 nM) [4].

B13: MYT13425 (antibody, human IgG1, V domains shown)
VH: B1 VH with D62H
VL: B1 VL with S30H, A51H, I93H
notes: also called sacituzumab HC-LC pairing variant; Sacituzumab pH variant
For B13, the “Max MFI (@ pH 6.4)-H1975” value [1] was 11200 MFI, the “Cytotox Fold over datopotamab (FOD)” value [5] was 1.39 fold over datopotamab and the Kd [2] was 3.99 nM. For the same binder, the “FOW H1975 (10 nM)” value [8] was 1.94 fold over parent antibody.

B14: MYT12405 (antibody, V domains shown)
VH: B2 VH
VL: B1 VL with L4M, S20T, I31T, A51H, S52H, D60S, Y92H, A100Q, V104L
notes: datopotamab VL 51, 52, 92 substituted
B14: no binding (tested: 50 nM) [4].

B15: 170-DXd (antibody, IgG1, V domains shown)
VH: QVQLQESGPGLVKPSETLSLTCTVSGGSISSYGVHWIRQPPGKGLEWIGVIWTSGVTDYNSALMGRVTISVDTSKNQFSLKLSSVTAADTAVYYCARDGDYDRYTMDYWGQGTLVTVSS
VL: DIVMTQSPDSLAVSLGERATINCRASKSVSTSGYSYMHWYQQKPGQPPKLLIYLASNLHSGVPDRFSGSGSGTDFTLTISSLQAEDVAVYYCHHSRHLPYTFGQGTKLEIK
modifications: maleimide based GGFG-DXd conjugated to hinge cysteines, average DAR of about 4
With B15 the “% efficiency @ 100 nM ADC” value [3] was 5.39%.

B16: 169-DXd (antibody, IgG1, V domains shown)
VH: B15 VH
VL: B15 VL with H59E, H93Q, H97E
modifications: maleimide based GGFG-DXd conjugated to hinge cysteines, average DAR of about 4
B16 was tested, and the “% efficiency @ 100 nM ADC” value [3] was -3.5%.

B17: MYT12408 (hu7E6SVG variant, HCV substitutions at 33, 34) (antibody, V domains shown)
VH: B15 VH with G33H, V34H
VL: B15 VL with H59E, H93Q, H97E
B17: binds [9].

B18: MYT13305 (antibody, V domains shown)
VH: B15 VH with M106H
VL: B15 VL with H59E, H93Q, H97E, T101H
notes: Full-length IgG from Expi293 supernatant; also called hu7E6SVG heavy chain and light chain pairing variant
B18: no binding (tested: 50 nM) [10].

B19: MYT13295 (antibody, V domains shown)
VH: B15 VH with M106H
VL: B15 VL with H59E, H93Q, H94A, H97E
notes: as for B18
B19: no binding (tested: 50 nM) [10].

B20: MYT12409 (hu7E6SVG variant, HCV substitutions at 33, 51) (antibody, V domains shown)
VH: B15 VH with G33H, I51H
VL: B15 VL with H59E, H93Q, H97E
B20: binds [9].

B21: MYT13315 (antibody, V domains shown)
VH: B15 VH with M106H
VL: B15 VL with H93Q, H97E, T101H
notes: as for B18
B21: no binding (tested: 50 nM) [10].

B22: MYT13310 (antibody, V domains shown)
VH: B15 VH with M106H
VL: B15 VL with H93Q, H94A, H97E
notes: as for B18
B22: no binding (tested: 50 nM) [10].

Source: patent US20260274985A1 (MYTHIC THERAPEUTICS, published 2026)
